Source: PMC11813886

Experiments:
human C3b = experiment: ELISA; conditions: chain shown with the change; human C3b-coated plates; value read at 50 nM protein (highest concentration); parent: est. 0.69; read off a plot
FHR-B_(Y162H) = target: T1, FHR-B_(Y162H); experiment: AUC (analytical ultracentrifugation, sedimentation velocity), self-association (dimerization); conditions: chain shown with the change; PBS pH 7; parent: est. 1.0; read off a plot
T1 chain: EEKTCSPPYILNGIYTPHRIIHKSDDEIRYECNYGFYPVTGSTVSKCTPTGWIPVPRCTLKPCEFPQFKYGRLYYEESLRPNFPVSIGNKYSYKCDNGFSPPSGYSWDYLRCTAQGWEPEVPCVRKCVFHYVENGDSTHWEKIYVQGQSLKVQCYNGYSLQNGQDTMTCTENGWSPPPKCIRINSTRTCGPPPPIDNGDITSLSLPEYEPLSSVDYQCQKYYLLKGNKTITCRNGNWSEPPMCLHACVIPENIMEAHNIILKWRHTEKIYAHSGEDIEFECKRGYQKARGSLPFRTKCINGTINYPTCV

FHR-B_(T161A,I166V) = target: T2, FHR-B_(T161A,I166V); experiment: as above; conditions: chain shown with the change; PBS pH 7; parent: est. 1.0; read off a plot
T2 chain: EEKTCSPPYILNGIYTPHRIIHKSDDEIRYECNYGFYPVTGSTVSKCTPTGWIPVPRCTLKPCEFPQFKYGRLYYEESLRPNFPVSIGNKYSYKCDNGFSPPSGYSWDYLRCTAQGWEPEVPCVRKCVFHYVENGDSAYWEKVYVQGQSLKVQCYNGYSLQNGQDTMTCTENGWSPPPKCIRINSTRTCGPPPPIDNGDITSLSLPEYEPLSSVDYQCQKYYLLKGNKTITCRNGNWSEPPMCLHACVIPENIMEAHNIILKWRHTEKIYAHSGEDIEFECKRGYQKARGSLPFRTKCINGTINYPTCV

human C3b, sequence (chain, as listed by the source, chain 1 of 2): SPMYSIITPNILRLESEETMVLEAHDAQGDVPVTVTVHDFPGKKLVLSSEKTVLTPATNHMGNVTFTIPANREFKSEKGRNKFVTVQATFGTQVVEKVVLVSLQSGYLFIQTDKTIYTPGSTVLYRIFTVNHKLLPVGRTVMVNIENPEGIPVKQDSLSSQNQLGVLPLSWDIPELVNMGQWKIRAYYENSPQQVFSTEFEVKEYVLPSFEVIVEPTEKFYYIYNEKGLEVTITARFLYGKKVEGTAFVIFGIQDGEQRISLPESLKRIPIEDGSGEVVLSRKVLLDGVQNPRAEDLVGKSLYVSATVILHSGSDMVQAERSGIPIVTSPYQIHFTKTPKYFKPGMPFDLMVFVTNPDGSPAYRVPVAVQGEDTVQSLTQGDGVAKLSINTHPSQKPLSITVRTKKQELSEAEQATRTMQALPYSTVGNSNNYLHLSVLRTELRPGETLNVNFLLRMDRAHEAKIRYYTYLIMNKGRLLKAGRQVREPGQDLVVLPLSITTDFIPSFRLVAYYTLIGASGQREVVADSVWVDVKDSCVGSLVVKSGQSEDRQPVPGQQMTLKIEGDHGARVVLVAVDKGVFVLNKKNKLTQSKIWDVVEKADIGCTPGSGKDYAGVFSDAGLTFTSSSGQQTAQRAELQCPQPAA
human C3b, sequence (chain, as listed by the source, chain 2 of 2): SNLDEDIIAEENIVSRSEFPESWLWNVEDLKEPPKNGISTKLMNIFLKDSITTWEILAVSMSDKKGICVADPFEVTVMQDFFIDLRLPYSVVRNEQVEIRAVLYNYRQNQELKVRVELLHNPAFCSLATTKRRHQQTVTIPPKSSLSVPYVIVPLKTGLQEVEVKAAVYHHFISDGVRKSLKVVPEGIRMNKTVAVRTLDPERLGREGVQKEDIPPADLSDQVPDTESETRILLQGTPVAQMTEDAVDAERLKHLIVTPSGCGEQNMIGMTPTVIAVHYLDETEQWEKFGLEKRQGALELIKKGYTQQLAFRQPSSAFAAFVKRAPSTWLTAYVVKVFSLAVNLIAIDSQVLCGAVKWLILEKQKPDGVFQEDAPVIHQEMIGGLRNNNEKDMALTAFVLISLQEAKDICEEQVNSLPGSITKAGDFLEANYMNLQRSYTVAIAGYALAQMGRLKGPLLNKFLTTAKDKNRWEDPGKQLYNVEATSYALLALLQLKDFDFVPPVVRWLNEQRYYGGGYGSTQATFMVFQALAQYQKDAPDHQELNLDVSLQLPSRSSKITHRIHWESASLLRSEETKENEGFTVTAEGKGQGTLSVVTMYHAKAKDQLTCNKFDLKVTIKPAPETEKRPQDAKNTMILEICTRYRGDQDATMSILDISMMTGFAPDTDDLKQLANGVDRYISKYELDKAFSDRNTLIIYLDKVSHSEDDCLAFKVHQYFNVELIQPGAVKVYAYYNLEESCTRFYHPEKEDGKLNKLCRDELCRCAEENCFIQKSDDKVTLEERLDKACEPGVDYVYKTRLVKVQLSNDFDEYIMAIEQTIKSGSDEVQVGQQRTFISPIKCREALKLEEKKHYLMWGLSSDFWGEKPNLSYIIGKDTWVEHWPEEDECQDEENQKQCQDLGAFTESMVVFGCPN

B1: recombinant form of the native mouse FHR-B protein (rFHR-B) Y162H (protein)
chain: EEKTCSPPYILNGIYTPHRIIHKSDDEIRYECNYGFYPVTGSTVSKCTPTGWIPVPRCTLKPCEFPQFKYGRLYYEESLRPNFPVSIGNKYSYKCDNGFSPPSGYSWDYLRCTAQGWEPEVPCVRKCVFHYVENGDSTHWEKIYVQGQSLKVQCYNGYSLQNGQDTMTCTENGWSPPPKCIRINSTRTCGPPPPIDNGDITSLSLPEYEPLSSVDYQCQKYYLLKGNKTITCRNGNWSEPPMCLHACVIPENIMEAHNIILKWRHTEKIYAHSGEDIEFECKRGYQKARGSLPFRTKCINGTINYPTCV
response (human C3b): 0.66 Abs 405nm | other: c(S) height of dimer peak (normalised distribution) (FHR-B_(Y162H)): 0.09

B2: recombinant form of the native mouse FHR-B protein (rFHR-B) T161A; I166V (protein)
chain: EEKTCSPPYILNGIYTPHRIIHKSDDEIRYECNYGFYPVTGSTVSKCTPTGWIPVPRCTLKPCEFPQFKYGRLYYEESLRPNFPVSIGNKYSYKCDNGFSPPSGYSWDYLRCTAQGWEPEVPCVRKCVFHYVENGDSAYWEKVYVQGQSLKVQCYNGYSLQNGQDTMTCTENGWSPPPKCIRINSTRTCGPPPPIDNGDITSLSLPEYEPLSSVDYQCQKYYLLKGNKTITCRNGNWSEPPMCLHACVIPENIMEAHNIILKWRHTEKIYAHSGEDIEFECKRGYQKARGSLPFRTKCINGTINYPTCV
response (human C3b): 0.66 Abs 405nm | other: c(S) height of dimer peak (normalised distribution) (FHR-B_(T161A,I166V)): 0.13
